{"source": "paper PMC10502760", "about": "“MdNAC104 positively regulates apple cold tolerance via CBF‐dependent and CBF‐independent pathways”", "binders": {"B1": {"name": "MdPRXR1.1-P2 (dsDNA)", "DNA 1": "TTTGTAACTAACGGAAAACTTAATACAAAA", "DNA 2": "TTTTGTATTAAGTTTTCCGTTAGTTACAAA"}, "B2": {"name": "MdCHI-P1 (dsDNA)", "DNA 1": "CTTTTGAGTTGGTTTCGTTGAAGACTTTTT", "DNA 2": "AAAAAGTCTTCAACGAAACCAACTCAAAAG"}, "B3": {"name": "MdCHS-b-P2 (dsDNA)", "DNA 1": "GATGTGGAACATGTGTGGCTATTAGGTTGGTATTCACACGAAATACGACCTACTATATAC", "DNA 2": "GTATATAGTAGGTCGTATTTCGTGTGAATACCAACCTAATAGCCACACATGTTCCACATC"}, "B4": {"name": "MdF3H-a-P7 (dsDNA)", "DNA 1": "CAAAAATATTTTCCGTAATGAAGTGTCTTG", "DNA 2": "CAAGACACTTCATTACGGAAAATATTTTTG"}, "B5": {"name": "MdCHS-b-P4 (dsDNA)", "DNA 1": "TCCTTTTTACGAAAGTGACATTACAACGAA", "DNA 2": "TTCGTTGTAATGTCACTTTCGTAAAAAGGA"}, "B6": {"name": "MdCBF3-P1-mut (dsDNA)", "DNA 1": "TATATATATTAAAAAAGATTGGGTGATGAG", "DNA 2": "CTCATCACCCAATCTTTTTTAATATATATA"}, "B7": {"name": "MdF3H-a-P2 (dsDNA)", "DNA 1": "ACATAGATGAATACATGTCACCGCCATAAT", "DNA 2": "ATTATGGCGGTGACATGTATTCATCTATGT"}, "B8": {"name": "MdF3H-a-P5 (dsDNA)", "DNA 1": "CAATTGAGTAATTTCGTTCTTAATTCTTTT", "DNA 2": "AAAAGAATTAAGAACGAAATTACTCAATTG"}, "B9": {"name": "MdCBF1-P1 (dsDNA)", "DNA 1": "CATCCCCACGAAAAGTACACAACCAACACA", "DNA 2": "TGTGTTGGTTGTGTACTTTTCGTGGGGATG"}, "B10": {"name": "MdF3H-a-P1 (dsDNA)", "DNA 1": "CAAACACAAAACGTATTTCGTTTGAGCCAA", "DNA 2": "TTGGCTCAAACGAAATACGTTTTGTGTTTG"}, "B11": {"name": "MdANS-b-P1 (dsDNA)", "DNA 1": "GGTGAGATGTCACATGTACAACAGCCACAT", "DNA 2": "ATGTGGCTGTTGTACATGTGACATCTCACC"}, "B12": {"name": "MdFSD2-P3 (dsDNA)", "DNA 1": "GTCATTTTGGACGAAAACTTTAATGAAAAT", "DNA 2": "ATTTTCATTAAAGTTTTCGTCCAAAATGAC"}, "B13": {"name": "MdF3H-a-P3 (dsDNA)", "DNA 1": "GTTACCCCATATGACCATGTAACCGTCTGA", "DNA 2": "TCAGACGGTTACATGGTCATATGGGGTAAC"}, "B14": {"name": "MdCBF1-P1-mut (dsDNA)", "DNA 1": "B9 DNA 1 with C9A, G10A", "DNA 2": "B9 DNA 2 with C21T, G22T"}, "B15": {"name": "MdANS-b-P4 (dsDNA)", "DNA 1": "GATTCCTATATATACGTAACTAGCTCATAG", "DNA 2": "CTATGAGCTAGTTACGTATATATAGGAATC"}, "B16": {"name": "MdCBF3-P1 (dsDNA)", "DNA 1": "TATATATATTCATGTGGATTGGGTGATGAG", "DNA 2": "CTCATCACCCAATCCACATGAATATATATA"}}, "note": "Residue numbers refer to the chain shown, from its start."}
{"molecular_target": "T1, MdNAC104-His (Malus domestica, UniProt D9ZJ88 1-204)", "T1 sequence": "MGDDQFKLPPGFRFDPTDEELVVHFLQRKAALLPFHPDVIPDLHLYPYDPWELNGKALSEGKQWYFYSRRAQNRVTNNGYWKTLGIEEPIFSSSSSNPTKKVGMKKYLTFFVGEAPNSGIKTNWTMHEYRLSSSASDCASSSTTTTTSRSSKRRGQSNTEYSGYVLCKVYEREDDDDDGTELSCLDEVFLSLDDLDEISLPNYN", "test": "EMSA; LightShift Chemiluminescent EMSA kit (Thermo) per manufacturer; buffer, salt, pH and temperature not stated", "settings": "protein: recombinant; tags: His (pET32a); chain copies: 2; label: biotin; blunt"}
{"binder": "B1", "binding result": "binds"}
{"binder": "B2", "binding result": "binds"}
{"binder": "B3", "binding result": "binds"}
{"binder": "B4", "binding result": "binds"}
{"binder": "B5", "binding result": "binds"}
{"binder": "B6", "binding result": "no binding"}
{"binder": "B7", "binding result": "binds"}
{"binder": "B8", "binding result": "binds"}
{"binder": "B9", "binding result": "binds"}
{"binder": "B10", "binding result": "binds"}
{"binder": "B11", "binding result": "binds"}
{"binder": "B12", "binding result": "binds"}
{"binder": "B13", "binding result": "binds"}
{"binder": "B14", "binding result": "no binding"}
{"binder": "B15", "binding result": "binds"}
{"binder": "B16", "binding result": "binds"}
